In US20150202273A1 (SHENZHEN INNOVATION IMMUNOTECHNOLOGY, published 2015):

Target: HLA-A2 molecules on T2 cells (human)
Test: cell-based or functional assay

Binder	IFN-γ release (ELISA) by expanded peptide-specific T cells in response to T2 cells pre-loaded with titrated peptide (0-20 µg/ml) [µg/mL]
ILANIYLLV [PSGR3]	5
VILANIYLLV [PSGR14]	5
WLAFPLCSL [PSGR4]	5
